The source of these data is patent publication US20240293565A1 (BEIJING SINOTAU BIO PHARMACEUTICALS TECHNOLOGY, published 2024).

The term EC50 (read off the curve) denotes the concentration at which the effect is half-maximal.

The target of experiment [1] is T1, human HER3 on the cell surface (human, UniProt P21860 20-1342). Description: cell-based or functional assay.
Experiment [2] addresses T1, human HER3 on the cell surface. Description: flow cytometry on SP2/0-HER3 cells. As to the method:
ch3F8-MMAE maintains the similar binding affinity to ch3F8. ch3F8-MMAE binding affinity with HER3 was measured with SP2/0-HER3 by FACS.

T1 sequence (P21860 20-1342): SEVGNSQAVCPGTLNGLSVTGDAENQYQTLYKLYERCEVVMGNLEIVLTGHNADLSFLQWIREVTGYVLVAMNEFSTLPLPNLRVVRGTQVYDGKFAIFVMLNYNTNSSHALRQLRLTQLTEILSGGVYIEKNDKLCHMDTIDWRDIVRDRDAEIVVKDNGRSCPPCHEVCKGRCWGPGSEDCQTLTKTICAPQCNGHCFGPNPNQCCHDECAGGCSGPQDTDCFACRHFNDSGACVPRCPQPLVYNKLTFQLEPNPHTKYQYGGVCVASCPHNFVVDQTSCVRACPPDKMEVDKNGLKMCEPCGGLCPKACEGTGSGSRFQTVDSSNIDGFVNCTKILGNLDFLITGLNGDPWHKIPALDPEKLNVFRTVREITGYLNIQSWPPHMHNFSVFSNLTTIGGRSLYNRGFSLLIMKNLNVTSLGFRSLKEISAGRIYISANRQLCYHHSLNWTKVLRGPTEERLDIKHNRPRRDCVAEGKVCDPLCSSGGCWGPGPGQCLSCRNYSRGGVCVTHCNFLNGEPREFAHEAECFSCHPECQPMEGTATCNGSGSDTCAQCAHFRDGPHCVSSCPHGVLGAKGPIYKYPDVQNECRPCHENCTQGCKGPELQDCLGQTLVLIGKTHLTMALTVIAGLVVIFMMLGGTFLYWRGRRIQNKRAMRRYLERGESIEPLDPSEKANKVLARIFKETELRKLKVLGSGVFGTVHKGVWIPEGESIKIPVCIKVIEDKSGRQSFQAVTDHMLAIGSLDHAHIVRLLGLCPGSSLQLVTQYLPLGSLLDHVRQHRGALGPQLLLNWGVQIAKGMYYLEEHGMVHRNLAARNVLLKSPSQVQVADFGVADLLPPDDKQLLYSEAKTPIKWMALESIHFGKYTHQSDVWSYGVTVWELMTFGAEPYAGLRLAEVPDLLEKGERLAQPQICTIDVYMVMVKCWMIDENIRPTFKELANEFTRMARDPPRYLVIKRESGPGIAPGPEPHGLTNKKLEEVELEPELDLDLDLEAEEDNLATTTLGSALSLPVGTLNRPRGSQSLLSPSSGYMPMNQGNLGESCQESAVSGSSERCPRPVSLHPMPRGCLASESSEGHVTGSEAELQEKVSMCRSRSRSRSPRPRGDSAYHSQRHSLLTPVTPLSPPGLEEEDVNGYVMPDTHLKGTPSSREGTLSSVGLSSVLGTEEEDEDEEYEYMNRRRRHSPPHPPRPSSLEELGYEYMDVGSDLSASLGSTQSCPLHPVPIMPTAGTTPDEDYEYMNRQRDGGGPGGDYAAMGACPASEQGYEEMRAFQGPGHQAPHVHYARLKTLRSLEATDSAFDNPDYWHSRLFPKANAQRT

B1: ch3F8-MMAE (antibody, V domains shown)
VH: DVQLQESGPGLVKPSQSLSLTCSVTGYSITSAYYWNWIRQFPGDKLEWMGYISYDGRNNFNPSLKNRISITRDTSKNQFFLKLNSVTSGDTATYYCARDGDYDYFDYWGQGTTLTVSS
VL: DIQMTQTTSSLSASLGDRVTISCRASQDISNYLNWYQQKPDGTFKLLIYYTSILHSGVPSRFSGSGSGTDYSLTISNLEQEDIATYFCQQGDTLPPTFGAGTKLELK
modifications: MC-VC-MMAE conjugated to cysteine residues of the antibody after reduction of disulfide bonds (positions not stated), DAR around 3.8
B1: in experiment [1], the “cytotoxicity IC50 (nM), ATPlite, 7901 cells” value was determined as 5.74 nM; the “cytotoxicity IC50 (nM), ATPlite, HT-29 cells” value was determined as 4.67 nM; the “cytotoxicity IC50 (nM), ATPlite, MCF-7 cells” value stood at 9.49 nM; the “cytotoxicity IC50 (nM), ATPlite, MDA-MB-453 cells” value is 0.0401 nM. Further, in experiment [1], the “cytotoxicity IC50 (nM), ATPlite, N87 cells” value turned out to be 1.91 nM; the “cytotoxicity IC50 (nM), ATPlite, SK-BR-3 cells” value is 0.159 nM; the “cytotoxicity IC50 (nM), ATPlite, SP2/0-HER3 cells” value was 0.486 nM.

B2: chimeric 3F8 (antibody, human IgG1, V domains shown)
VH: B1 VH
VL: B1 VL
notes: also called ch3F8; Ch3F8
For the molecule B2, the 50% effective concentration (EC50 (read off the curve)) in experiment [2] is approximately 0.08 µg/mL.
